This is an account of results in PMC6717765, “p32 is a negative regulator of p53 tetramerization and transactivation” (Molecular Oncology, 2019).

The chains are these.
B5: His-tagged p32 (wild type, recombinant) (natural protein, UniProt Q07021 74-282, looked up)
chain: LHTDGDKAFVDFLSDEIKEERKIQKHKTLPKMSGGWELELNGTEAKLVRKVAGEKITVTFNINNSIPPTFDGEEEPSQGQKVEEQEPELTSTPNFVVEVIKNDDGKKALVLDCHYPEDEVGQEDEAESDIFSIREVSFQSTGESEWKDTNYTLNTDSLDWALYDHLMDFLADRGVDNTFADELVELSTALEHQEYITFLEDLKSFVKSQ
notes: p32 (gC1qR/C1QBP/HABP1); also called His-p32; mature p32

Conditions in all cases: both partners purified
Experiment [1] addresses T1, FLAG-tagged p53 (recombinant) (UniProt P04637 1-393).
T1 construct: p53; also called FLAG-p53; source: E. coli Rosetta 2 (DE3) pLysS, purified (anti-FLAG M2 agarose)
Kind of experiment: pull-down; GST or GST-p32 fusions immobilised on glutathione-Sepharose beads, FLAG-tagged p53 in solution; overnight at 4 °C; 20 mM Tris/HCl pH 7.3, 0.2 M KCl, 0.2 mM EDTA, 20% glycerol, 0.01% Nonidet P-40; blot with anti-FLAG.

For experiment [2], the target named is B5. The experiment can be described thus: pull-down; GST or GST-p53 fusions immobilised on glutathione-Sepharose beads, His-tagged p32 in solution; overnight at 4 °C; 20 mM Tris/HCl pH 7.3, 0.2 M KCl, 0.2 mM EDTA, 20% glycerol, 0.01% Nonidet P-40; blot with anti-His.
Experiment [3] deals with T1, FLAG-tagged p53 (recombinant). The experiment can be described thus: cross-linking; purified FLAG-p53 with or without p32 (molar ratio 1:1, 1:2, 1:4) overnight at 4 °C; 10 mM Tris/HCl pH 7.5, 50 mM NaCl, 0.1 mM EDTA, 1 mM DTT, 5% glycerol; 0.01% glutaraldehyde 10 min at 22 °C; SDS/PAGE and anti-FLAG blot for monomers, dimers, tetramers.
For experiment [4], the target named is T2, GST-p53 (UniProt P04637 1-393).
T2 construct: p53; also called GST-fused p53; source: bacterially produced, purified on glutathione-Sepharose 4B beads
T2 sequence (P04637 whole entry, the tested form may be a part): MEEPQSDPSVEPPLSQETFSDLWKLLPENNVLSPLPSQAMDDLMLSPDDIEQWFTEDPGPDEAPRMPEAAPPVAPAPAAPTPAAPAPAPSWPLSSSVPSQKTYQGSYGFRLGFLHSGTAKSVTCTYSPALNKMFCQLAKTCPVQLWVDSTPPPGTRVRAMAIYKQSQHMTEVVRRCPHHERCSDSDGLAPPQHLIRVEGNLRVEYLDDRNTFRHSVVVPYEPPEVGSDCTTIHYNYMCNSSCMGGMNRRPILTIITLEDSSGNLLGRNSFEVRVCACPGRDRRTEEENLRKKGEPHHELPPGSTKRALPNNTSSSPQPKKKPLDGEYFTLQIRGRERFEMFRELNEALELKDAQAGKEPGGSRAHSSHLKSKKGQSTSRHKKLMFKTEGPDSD
Kind of experiment: pull-down; GST or GST-p53 fusions immobilised on glutathione-Sepharose beads, His-tagged p32 in solution; overnight at 4 °C; 20 mM Tris/HCl pH 7.3, 0.2 M KCl, 0.2 mM EDTA, 20% glycerol, 0.01% Nonidet P-40; blot with anti-His.

T1 sequence (P04637 whole entry): as the sequence (P04637 whole entry, the tested form may be a part) above

B1: GST-p32 (233-250) (domain or fragment, UniProt Q07021 233-250, looked up)
chain: WALYDHLMDFLADRGVDN
notes: source: expressed and purified on glutathione-Sepharose 4B beads
For the molecule B1, in experiment [1], the binding result was “binds”.

B2: GST-p32 (233-250) D249A (domain or fragment, UniProt Q07021 233-250, looked up)
chain: WALYDHLMDFLADRGVAN
notes: also called GST-p32 D249A; source: expressed and purified on glutathione-Sepharose 4B beads
Consider B2, for which the binding result in experiment [1] is given as “binds”.

B3: GST-p53 tetramerization domain (residues 328-368) (domain or fragment, UniProt P04637 328-368, looked up)
chain: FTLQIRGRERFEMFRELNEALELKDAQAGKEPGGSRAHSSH
notes: source: bacterially produced, purified on glutathione-Sepharose 4B beads
B3: the binding result in experiment [2] is recorded as “binds”.

B4: GST-p32 C-terminal domain (residues 233-282) (domain or fragment, UniProt Q07021 233-282, looked up)
chain: WALYDHLMDFLADRGVDNTFADELVELSTALEHQEYITFLEDLKSFVKSQ
notes: as for B1
Take B4: the binding result in experiment [1] was “binds”.

Regarding B5, the binding result in experiment [3] and in experiment [4] was “binds” each time.
